From article PMC8209050 (Nature Communications, 2021)

target: T1, SARS-CoV-2 Spike receptor binding domain (RBD), wild type, His-tagged (SARS-CoV-2, UniProt P0DTC2); assay: cryo-EM structure; details: both partners purified
T1 construct: also called WT RBD; BEI NR52309

Binder	binding result
Fab 46 (Fab, V domains shown) VH: EVQLLESGGGLVQPGRSLRLSCAASGFTFSSYAMSWVRQAPGKGLEWVSTIYSGGSTYYADSVKGRFTISRDNSKNTLYLQMNSLRAEDTAVYYCARGDSRDAFDIWGQGTMVTVSS VL: DIQMTQSPSSLSASVGDRVTITCRASQSISSWLAWYQQKPGKAPKLLIYDASNLETGVPSRFSGSGSGTDFTLTISSLQPEDFATYYCQQSYSTPFTFGPGTKVDIK	binds

target: T1, SARS-CoV-2 Spike receptor binding …; assay: BLI; details: both partners purified

Binder	binding result
mAb 80, full-length IgG (antibody, V domains shown) VH: QVQLVQSGAEVKKPGSSVKVSCKASGGTFNRYAFSWVRQAPGQGLEWMGGIIPIFGTANYAQKFQGRVTITADESTSTAYMELSSLRSEDTAVYYCARSTRELPEVVDWYFDLWGRGTLVTVSS VL: not shown	binds
mAb 52, full-length IgG (antibody, V domains shown, also called antibody 52) VH: QVQLVQSGAEVKKPGSSVKVSCKASGYTFTSYGISWVRQAPGQGLEWMGGIIPMFGTTNYAQKFQGRVTITADKSTSTAYMELSSLRSEDTAVYYCARDRGDTIDYWGQGTLVTVSS VL: DIQMTQSPSSLSASVGDRVTITCRASQGISNNLNWYQQKPGKAPKLLIYAASSLESGVPSRFSGSGSGTDFTLTISSLQPEDFATYYCQQGNGFPLTFGPGTKVDIK	binds
mAb 324, full-length IgG (antibody, V domains shown) VH: QVQLVQSGAEVKKPGASVKVSCKASGGTFNNYGISWVRQAPGQGLEWMGWMNPNSGNTGYAQKFQGRVTMTRDTSTSTVYMELSSLRSEDTAVYYCARVGDYGDYIVSPFDLWGRGTLVTVSS VL: DIQMTQSPSSLSASVGDRVTITCRASQSITTYLNWYQQKPGKAPKLLIYDASNLETGVPSRFSGSGSGTDFTLTISSLQPEDFATYYCQQSYSTPPTFGQGTKVEIK	binds
mAb 82, full-length IgG (antibody, V domains shown) VH: QVQLVQSGAEVKKPGASVKVSCKASGGSFSTSAFYWVRQAPGQGLEWMGWINPYTGGTNYAQKFQGRVTMTRDTSTSTVYMELSSLRSEDTAVYYCARSRALYGSGSYFDYWGQGTLVTVSS VL: DIQMTQSPSSLSASVGDRVTITCRASQVISNYLAWYQQKPGKAPKLLIYDASNLETGVPSRFSGSGSGTDFTLTISSLQPEDFATYYCQQSFSPPPTFGQGTRLEIK	binds
mAb 46, full-length IgG (antibody, V domains shown, also called antibody 46) VH: EVQLLESGGGLVQPGRSLRLSCAASGFTFSSYAMSWVRQAPGKGLEWVSTIYSGGSTYYADSVKGRFTISRDNSKNTLYLQMNSLRAEDTAVYYCARGDSRDAFDIWGQGTMVTVSS VL: DIQMTQSPSSLSASVGDRVTITCRASQSISSWLAWYQQKPGKAPKLLIYDASNLETGVPSRFSGSGSGTDFTLTISSLQPEDFATYYCQQSYSTPFTFGPGTKVDIK	binds
mAb 298, full-length IgG (antibody, V domains shown, also called IgG 298; antibody 298) VH: QVQLVQSGAEVKKPGASVKVSCKASGGTFSTYGISWVRQAPGQGLEWMGWISPNSGGTDLAQKFQGRVTMTRDTSTSTVYMELSSLRSEDTAVYYCASDPRDDIAGGYWGQGTLVTVSS VL: not shown	binds
mAb 236, full-length IgG (antibody, V domains shown) VH: QVQLVQSGAEVKKPGASVKVSCKASGGTFTSYGINWVRQAPGQGLEWMGWMNPNSGNTGYAQKFQGRVTMTRDTSTSTVYMELSSLRSEDTAVYYCASRGIQLLPRGMDVWGQGTTVTVSS VL: not shown	binds

target: T1, SARS-CoV-2 Spike receptor binding …; assay: crystal structure; details: both partners purified

Binder	binding result
Fab 52 (Fab, V domains shown, also called 52 Fab) VH: QVQLVQSGAEVKKPGSSVKVSCKASGYTFTSYGISWVRQAPGQGLEWMGGIIPMFGTTNYAQKFQGRVTITADKSTSTAYMELSSLRSEDTAVYYCARDRGDTIDYWGQGTLVTVSS VL: DIQMTQSPSSLSASVGDRVTITCRASQGISNNLNWYQQKPGKAPKLLIYAASSLESGVPSRFSGSGSGTDFTLTISSLQPEDFATYYCQQGNGFPLTFGPGTKVDIK	binds
Fab 298 (Fab, V domains shown, also called 298 Fab) VH: QVQLVQSGAEVKKPGASVKVSCKASGGTFSTYGISWVRQAPGQGLEWMGWISPNSGGTDLAQKFQGRVTMTRDTSTSTVYMELSSLRSEDTAVYYCASDPRDDIAGGYWGQGTLVTVSS VL: not shown	binds

target: T1, SARS-CoV-2 Spike receptor binding …; assay: not given; details: not given

Binder	Kd [nM]
349 (antibody, V domains shown) VH: EVQLLESGGGLVQPGGSLRLSCAASGFTFSNYGMHWVRQAPGKGLEWVSGISSAGSITNYADSVKGRFTISRDNSKNTLYLQMNSLRAEDTAVYYCAGNHAGTTVTSEYFQHWGQGTLVTVSS VL: DIQMTQSPSSLSASVGDRVTITCRASQSISSWLAWYQQKPGKAPKLLIYDTSNLETGVPSRFSGSGSGTDFTLTISSLQPEDFATYYCQQSYTTPWTFGQGTRLEIK	74
160 (antibody, V domains shown) VH: QVQLVQSGAEVKKPGASVKVSCKASGYTFTGHDMHWVRQAPGQGLEWMGIINPSGGSTSYAQKFQGRVTMTRDTSTSTVYMELSSLRSEDTAVYYCARANSLRYYYGMDVWGQGTMVTVSS VL: DIQMTQSPSSLSASVGDRVTITCRASQSVSSWLAWYQQKPGKAPKLLIYAASSLQSGVPSRFSGSGSGTDFTLTISSLQPEDFATYYCQQGYTTPYTFGQGTKLEIK	7.7
108 (antibody, V domains shown) VH: QVQLVQSGAEVKKPGASVKVSCKASGYIFSRYAIHWVRQAPGQGLEWMGWMNPISGNTDYAPNFQGRVTMTRDTSTSTVYMELSSLRSEDTAVYYCAKDGSQLAYLVEYFQHWGQGTLVTVSS VL: DIQMTQSPSSLSASVGDRVTITCRASQVITNNLAWYQQKPGKAPKLLIYDASTLETGVPSRFSGSGSGTDFTLTISSLQPEDFATYYCQQSYTFPYTFGQGTKVEIK	72
120 (antibody, V domains shown) VH: QVQLVQSGAEVKKPGASVKVSCKASGYTFTSYDINWVRQAPGQGLEWMGMIDPSGGSTSYAQKFQGRVTMTRDTSTSTVYMELSSLRSEDTAVYYCAKDFGGGTRYDYWYFDLWGRGTLVTVSS VL: EIVMTQSPATLSVSPGERATLSCRASQSVSSRYLAWYQQKPGQAPRLLIYGASTRATGIPARFSGSGSGTEFTLTISSLQSEDFAVYYCQQYYTTPRTFGQGTRLEIK	24
56 (antibody, V domains shown) VH: QVQLVQSGAEVKKPGASVKVSCKASGYTFTSYGISWVRQAPGQGLEWMGWISAYNGNTNYAQKLQGRVTMTRDTSTSTVYMELSSLRSEDTAVYYCARDIGPIDYWGQGTLVTVSS VL: DIQMTQSPSSLSASVGDRVTITCRASQGISSYLAWYQQKPGKAPKLLIYDASNLQSGVPSRFSGSGSGTDFTLTISSLQPEDFATYYCQQANSFPSTFGQGTKVEIK	23
128 (antibody, V domains shown) VH: QVQLVQSGAEVKKPGASVKVSCKASGYTFTHYYMHWVRQAPGQGLEWMGIINPSSSSASYSQKFQGRVTMTRDTSTSTVYMELSSLRSEDTAVYYCARDGRYGSGSYPFDYWGQGTLVTVSS VL: DIQMTQSPSSLSASVGDRVTITCRASQNISRYLNWYQQKPGKAPKLLIYDASNLETGVPSRFSGSGSGTDFTLTISSLQPEDFATYYCQQANGFPPTFGQGTKLEIK	57
158 (antibody, V domains shown) VH: QVQLVQSGAEVKKPGASVKVSCKASGYTFTGYYMHWVRQAPGQGLEWMGWINPLNGGTNFAPKFQGRVTMTRDTSTSTVYMELSSLRSEDTAVYYCARDPGGSYSNDAFDIWGQGTLVTVSS VL: DIQMTQSPSSLSASVGDRVTITCRASQSISRYLNWYQQKPGKAPKLLIYDASNLESGVPSRFSGSGSGTDFTLTISSLQPEDFATYYCQQANSFPLTFGGGTKVDIK	172
64 (antibody, V domains shown) VH: EVQLLESGGGLVQPGGSLRLSCAASGFPFSQHGMHWVRQAPGKGLEWVSAIDRSGSYIYYADSVKGRFTISRDNSKNTLYLQMNSLRAEDTAVYYCARDTYGGKVTYFDYWGQGTLVTVSS VL: DIQMTQSPSSLSASVGDRVTITCRASQGISSHLAWYQQKPGKAPKLLIYDASNLETGVPSRFSGSGSGTDFTLTISSLQPEDFATYYCQQTYSTPWTFGQGTKVEIK	97
178 (antibody, V domains shown) VH: QVQLVQSGAEVKKPGASVKVSCKASGYTFTDYHMHWVRQAPGQGLEWMGWINPNSGGTNYAQKFQGRVTMTRDTSTSTVYMELSSLRSEDTAVYYCARDISSWYEITKFDPWGQGTLVTVSS VL: EIVMTQSPATLSVSPGERATLSCKASQSVSGTYLAWYQQKPGQAPRLLIYGASTRATGIPARFSGSGSGTEFTLTISSLQSEDFAVYYCLQTHSYPPTFGQGTKVEIK	72
254 (antibody, V domains shown) VH: EVQLLESGGGLVQPGGSLRLSCAASGFTFSSSAMHWVRQAPGKGLEWVSAIGTGGDTYYADSVKGRFTISRDNSKNTLYLQMNSLRAEDTAVYYCAREGDGYNFYFDYWGQGTLVTVSS VL: DIQMTQSPSSLSASVGDRVTITCRASQGISSYLAWYQQKPGKAPKLLIYDASSLQIGVPSRFSGSGSGTDFTLTISSLQPEDFATYYCLQSYSTPPWTFGQGTKVEIK	127
